Assays:
human epidermal cells = format: cell-based
[1] = Cocaine hydrolysis activity in vitro (clearance assay with conditioned medium)
[2] = hBChE in blood by ELISA, mice grafted with mouse skin organoids; format: in vivo
Excerpt: To efficiently transplant mouse epidermal progenitor cells, a new organotypic culture model with mouse epidermal progenitor cells was developed in vitro by culturing the cells on top of acellularized mouse dermis. Exposure to the air/liquid interface can induce stratification of cultured cells to generate a skin-like organoid in vitro. […] To investigate the potential therapeutic effect of hBChE expression in vivo, we transplanted the organoids to isogenic host animals (CD1 and C57BL/6) (FIGS. 22A and 22B-C). […] Expression of hBChE in grafted animals was stable for more than 10 weeks (FIG. 22H).

[3] = after i.v. injection; cited from earlier work
[4] = tested on: human epidermal keratinocytes; experiment: Cell proliferation and differentiation of engineered human epidermal cells in vitro; format: cell-based
Method: Primary human neonatal epidermal keratinocytes were obtained from Thermo Fischer® (C0015C), and cultured with Epilife® medium (Thermo Fischer, M-EPICF-500) with manufacturer's recommended procedures. Calcium shift was performed to induce differentiation of primary keratinocytes by increasing the calcium concentration in culture media to 1.5 mM.
Propidium iodide (PI) staining followed by flow cytometry were used to determine the effect of cell cycle profiles. Mouse and human epidermal cells were cultured in two 6 cm cell culture dish for 24 hours, respectively. Cells were trypsinized, and 1×10^5 cells from each dish were collected, followed by one PBS wash. […] After staining, the cells were analyzed immediately using flow cytometer BD FACSCanto™ II (BD Biosciences, San Jose, CA) with an excitation wavelength at 488 nm and emission at 585 nm. DNA content and histograms of cell cycle distribution were analyzed using FlowJo™ software, version 10 (FLOWJO LLC, OR).
Western blotting was performed as described previously (Blanpain et al.). […] Visualization and quantification was carried out with the LI-COR Odyssey® scanner and software (LI-COR Biosciences).
Propidium iodide (PI) staining followed by flow cytometry were used to determine the effect of cell cycle profiles. […] DNA content and histograms of cell cycle distribution were analyzed using FlowJo™ software, version 10 (FLOWJO LLC, OR). […]

B1: hBChE: modified human butyrylcholinesterase (E30-6, SEQ ID NO: 41), cocaine hydrolase, expressed from engineered epidermal cells / skin grafts (protein)
chain: MHSKVTIICIRFLFWFLLLCMLIGKSHTEDDIIIATKNGKVRGMNLTVFGGTVTAFLGIPYAQPPLGRLRFKKPQSLTKWSDIWNATKYANSCCQNIDQSFPGFHGSEMWNPNTDLSEDCLYLNVWIPAPKPKNATVLIWIYGGGFQTGTSSLHVYDGKFLARVERVIVVSMNYRVGALGFLALPGNPEAPGNMGLFDQQLALQWVQKNIAAFGGNPKSVTLFGESSGAASVSLHLLSPGSHSLFTRAILQSGSANAPWAVTSLYEARNRTLNLAKLTGCSRENETEIIKCLRNKDPQEILLNEAFVVPYGTALGVNFGPTVDGDFLTDMPDILLELGQFKKTQILVGVNKDEGTWFLVGGAPGFSKDNNSIITRKEFQEGLKIFFPGVSEFGKESILFHYTDWVDDQRPENYREALGDVVGDYNFICPALEFTKKFSEWGNNAFFYYFEHRSSKLPWPEWMGVMHGYEIEFVFGLPLERRDNYTKAEEILSRSIVKRWANFAKYGNPNETQNNSTSWPVFKSTEQKYLTLNTESTRIMTKLRAQQCRFWTSFFPKVLEMTGNIDEAEWEWKAGFHRWNNYMMDWKNQFNDYTSKKESCVGL
modifications: Human mutant BChE
- hBChE production (human epidermal cells): strong hBChE production
- cocaine hydrolysis activity of conditioned medium [1]: significantly induced degradation of cocaine in vitro
- duration of stable hBChE expression in grafted animals ([2]; hosts with intact immune systems): more than 10 weeks
- level of human BChE in the blood ([2]; mice grafted with hBChE-expressing mouse cells): significantly elevated levels of human BChE in the blood
- half-life in vivo [3]: short half-life in vivo
- effect of expression on cell proliferation / differentiation in vitro [4]: did not significantly change cell proliferation

Reference: US20230392126A1, “TISSUE ORGANOIDS” (priority 2016, published 2023)
